Source: paper PMC11077089, “Molecular basis of A. thaliana KEOPS complex in biosynthesizing tRNA t6A”

What was measured:
Assay in all cases: EMSA; 1:5 RNA:protein; MST: 20 mM PBS pH 7.5, 300 mM NaCl, 0.05% Tween 20, 25 C, 50 nM RNA; EMSA: 20 mM Tris-HCl pH 7.5, 300 mM NaCl, 5 mM b-mercaptoethanol, 20% glycerol, agarose gel in Tris-glycine pH 8.0 (8.5 for FAM-RNA), 4 C
Settings in all cases: protein: recombinant;recombinant;recombinant;recombinant; tags: ;none (6His on partner CGI121);6His (C-term);6His (C-term); chain copies: 2;2;2;2; label: 5' 6-FAM; tRNA cloverleaf
[1] = target: T1, KAE1 A231G;BUD32;CGI121;PCC1 (Arabidopsis thaliana;Arabidopsis …, UniProt O49653;Q94K14;Q6NMZ4;Q8GWD7 1-353;1-226;1-172;1-96, A231G|||)
T1 sequence 1: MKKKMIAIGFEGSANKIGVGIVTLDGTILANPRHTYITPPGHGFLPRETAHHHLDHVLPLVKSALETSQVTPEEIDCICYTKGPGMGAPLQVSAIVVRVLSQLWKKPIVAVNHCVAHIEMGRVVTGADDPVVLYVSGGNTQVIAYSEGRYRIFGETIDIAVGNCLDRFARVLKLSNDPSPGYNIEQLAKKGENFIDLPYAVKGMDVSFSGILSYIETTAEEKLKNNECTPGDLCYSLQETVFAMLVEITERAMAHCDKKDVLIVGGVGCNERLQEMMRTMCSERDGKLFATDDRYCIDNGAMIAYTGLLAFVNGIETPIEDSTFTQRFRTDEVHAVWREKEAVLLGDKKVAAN
T1 sequence 2: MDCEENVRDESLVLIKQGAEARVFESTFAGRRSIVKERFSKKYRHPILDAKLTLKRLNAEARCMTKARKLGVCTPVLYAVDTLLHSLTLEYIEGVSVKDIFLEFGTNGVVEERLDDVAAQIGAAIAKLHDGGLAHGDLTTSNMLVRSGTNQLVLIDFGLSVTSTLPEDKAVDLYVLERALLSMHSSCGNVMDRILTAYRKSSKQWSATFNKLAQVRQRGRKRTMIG
T1 sequence 3: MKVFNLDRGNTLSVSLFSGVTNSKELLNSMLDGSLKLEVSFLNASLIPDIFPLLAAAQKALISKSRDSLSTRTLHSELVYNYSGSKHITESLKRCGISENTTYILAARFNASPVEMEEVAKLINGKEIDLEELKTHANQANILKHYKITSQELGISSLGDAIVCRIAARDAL
T1 sequence 4: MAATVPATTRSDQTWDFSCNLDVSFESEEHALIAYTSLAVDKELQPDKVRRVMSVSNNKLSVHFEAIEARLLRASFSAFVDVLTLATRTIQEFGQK

[2] = target: T2, KAE1 R284C;BUD32;CGI121;PCC1 (Arabidopsis thaliana;Arabidopsis …, UniProt O49653;Q94K14;Q6NMZ4;Q8GWD7 1-353;1-226;1-172;1-96, R284C|||)
T2 sequence 1: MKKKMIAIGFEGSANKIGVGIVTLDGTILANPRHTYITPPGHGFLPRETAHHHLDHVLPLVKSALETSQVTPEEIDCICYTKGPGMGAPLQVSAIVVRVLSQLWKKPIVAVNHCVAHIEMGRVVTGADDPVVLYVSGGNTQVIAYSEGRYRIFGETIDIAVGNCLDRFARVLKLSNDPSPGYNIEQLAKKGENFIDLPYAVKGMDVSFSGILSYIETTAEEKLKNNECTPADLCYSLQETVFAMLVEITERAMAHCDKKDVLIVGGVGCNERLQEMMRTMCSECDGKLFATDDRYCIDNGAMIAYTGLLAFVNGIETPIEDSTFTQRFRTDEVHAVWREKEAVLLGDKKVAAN
T2 sequence 2: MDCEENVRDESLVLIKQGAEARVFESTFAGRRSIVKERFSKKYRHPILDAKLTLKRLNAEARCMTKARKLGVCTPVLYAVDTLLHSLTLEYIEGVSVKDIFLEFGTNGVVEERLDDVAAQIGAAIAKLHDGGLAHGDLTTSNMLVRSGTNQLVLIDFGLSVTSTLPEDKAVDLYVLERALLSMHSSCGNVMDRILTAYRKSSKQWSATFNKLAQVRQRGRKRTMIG
T2 sequence 3: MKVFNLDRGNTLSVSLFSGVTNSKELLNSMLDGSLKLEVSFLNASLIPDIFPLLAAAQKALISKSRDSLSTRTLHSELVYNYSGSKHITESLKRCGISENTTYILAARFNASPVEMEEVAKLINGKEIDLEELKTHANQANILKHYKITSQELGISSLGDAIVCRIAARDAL
T2 sequence 4: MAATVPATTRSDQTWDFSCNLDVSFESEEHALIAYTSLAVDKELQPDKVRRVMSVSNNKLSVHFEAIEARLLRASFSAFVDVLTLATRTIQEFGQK

[3] = target: T3, KAE1 H117A;BUD32;CGI121;PCC1 (Arabidopsis thaliana;Arabidopsis …, UniProt O49653;Q94K14;Q6NMZ4;Q8GWD7 1-353;1-226;1-172;1-96, H117A|||)
T3 sequence 1: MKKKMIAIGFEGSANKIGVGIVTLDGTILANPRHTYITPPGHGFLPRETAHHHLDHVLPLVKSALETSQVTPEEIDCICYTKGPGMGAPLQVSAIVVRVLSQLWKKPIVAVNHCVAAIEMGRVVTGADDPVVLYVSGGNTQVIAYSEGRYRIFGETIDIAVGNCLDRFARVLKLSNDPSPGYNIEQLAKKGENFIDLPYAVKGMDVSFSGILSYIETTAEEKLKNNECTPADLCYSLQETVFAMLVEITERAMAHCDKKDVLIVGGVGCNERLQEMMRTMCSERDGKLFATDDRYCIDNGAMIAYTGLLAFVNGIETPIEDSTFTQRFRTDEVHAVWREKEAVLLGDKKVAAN
T3 sequence 2: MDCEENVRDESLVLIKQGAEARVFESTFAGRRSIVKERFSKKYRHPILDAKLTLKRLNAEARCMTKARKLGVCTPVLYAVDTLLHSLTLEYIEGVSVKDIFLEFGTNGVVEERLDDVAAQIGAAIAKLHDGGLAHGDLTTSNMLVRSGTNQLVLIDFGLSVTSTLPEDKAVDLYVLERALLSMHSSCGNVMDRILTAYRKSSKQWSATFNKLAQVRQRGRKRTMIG
T3 sequence 3: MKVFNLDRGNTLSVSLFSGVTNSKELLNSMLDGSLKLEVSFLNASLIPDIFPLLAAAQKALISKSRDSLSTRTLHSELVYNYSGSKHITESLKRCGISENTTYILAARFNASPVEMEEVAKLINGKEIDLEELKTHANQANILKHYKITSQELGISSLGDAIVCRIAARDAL
T3 sequence 4: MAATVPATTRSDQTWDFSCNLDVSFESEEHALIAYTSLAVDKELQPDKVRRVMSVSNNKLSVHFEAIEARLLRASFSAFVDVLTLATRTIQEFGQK

[4] = target: T4, KAE1 Y305A;BUD32;CGI121;PCC1 (Arabidopsis thaliana;Arabidopsis …, UniProt O49653;Q94K14;Q6NMZ4;Q8GWD7 1-353;1-226;1-172;1-96, Y305A|||)
T4 sequence 1: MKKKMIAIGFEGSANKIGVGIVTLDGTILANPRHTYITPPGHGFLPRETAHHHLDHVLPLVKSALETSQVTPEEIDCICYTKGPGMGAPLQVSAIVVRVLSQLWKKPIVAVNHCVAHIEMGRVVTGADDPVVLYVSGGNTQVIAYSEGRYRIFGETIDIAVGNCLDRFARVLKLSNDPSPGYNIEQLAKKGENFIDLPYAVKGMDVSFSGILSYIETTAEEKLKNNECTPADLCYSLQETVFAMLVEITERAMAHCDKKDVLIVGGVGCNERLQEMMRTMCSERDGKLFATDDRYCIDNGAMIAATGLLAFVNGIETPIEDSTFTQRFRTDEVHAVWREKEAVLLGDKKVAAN
T4 sequence 2: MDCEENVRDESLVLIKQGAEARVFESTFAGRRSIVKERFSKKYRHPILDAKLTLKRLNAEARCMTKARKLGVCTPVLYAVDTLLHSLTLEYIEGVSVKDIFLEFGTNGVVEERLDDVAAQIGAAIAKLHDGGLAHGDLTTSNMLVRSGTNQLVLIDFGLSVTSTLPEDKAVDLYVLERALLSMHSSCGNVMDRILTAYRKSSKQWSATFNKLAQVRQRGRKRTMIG
T4 sequence 3: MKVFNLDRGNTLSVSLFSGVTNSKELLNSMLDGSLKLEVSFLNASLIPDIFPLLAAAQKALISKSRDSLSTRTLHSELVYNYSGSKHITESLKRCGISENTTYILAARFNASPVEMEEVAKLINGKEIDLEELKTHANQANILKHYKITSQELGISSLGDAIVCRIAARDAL
T4 sequence 4: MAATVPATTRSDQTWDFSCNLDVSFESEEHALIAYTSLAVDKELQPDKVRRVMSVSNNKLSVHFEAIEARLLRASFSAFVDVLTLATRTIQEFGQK

Measured: binding result

B1: 5'-6FAM-tRNAArgCCU (structured_RNA)
RNA: GCGCCUGUAGCUCAGUGGAUAGAGCGUCUGUUUCCUAAGCAGAAGGUCGUAGGUUCGACCCCUACCUGGCGCGCCA
binds: all assays above
